{"source": "paper PMC11196578", "binders": {"B1": {"name": "Forked DNA (mixed)", "DNA 1": "AACGAGTCAAGCGCATCCCGTTTTTTTTTTTTTTT", "DNA 2": "TTTTTTTTTTTTTTTCGGGATGCGCTTGACTCGTT"}}, "molecular_target": "MPXV E5_∆N (Mpox virus, UniProt A0A7H0DN89 323-785)", "sequence (A0A7H0DN89 323-785)": "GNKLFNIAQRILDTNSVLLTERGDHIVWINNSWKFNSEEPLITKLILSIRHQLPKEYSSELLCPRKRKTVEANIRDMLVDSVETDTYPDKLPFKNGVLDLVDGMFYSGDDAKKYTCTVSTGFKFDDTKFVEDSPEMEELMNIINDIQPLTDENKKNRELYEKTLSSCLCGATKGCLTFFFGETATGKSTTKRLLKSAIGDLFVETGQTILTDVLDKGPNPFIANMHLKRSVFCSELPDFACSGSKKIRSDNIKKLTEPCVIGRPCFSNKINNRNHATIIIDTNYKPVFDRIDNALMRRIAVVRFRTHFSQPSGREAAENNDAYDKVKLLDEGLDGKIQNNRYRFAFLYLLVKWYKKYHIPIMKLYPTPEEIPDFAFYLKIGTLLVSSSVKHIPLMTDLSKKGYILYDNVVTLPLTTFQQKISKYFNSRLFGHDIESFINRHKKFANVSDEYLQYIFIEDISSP", "experiment": "cryo-EM (2.67 A)", "conditions": "protein: recombinant; tags: SUMO fusion; protease-treated (ULP or TEV); chain copies: 6"}
{"binder": "B1", "values": [{"measurement": "binding result", "value": "binds"}]}
